Tests used:
Assay in all cases: cell-based or functional assay
[1] = target: TSP1 (thrombospondin-1) protein (human) (UniProt P07996)
[2] = target: FSTL1 (Follistatin-like 1) protein (human) (UniProt Q12841)
[3] = target: MCP1 (monocyte chemoattractant protein-1) protein (human) (UniProt P13500)
[4] = target: IL-13Ra2 (interleukin 13 alpha 2 receptor) protein (human) (UniProt Q14627)
[5] = target: IL-10 protein (UniProt P22301)
[6] = target: TGF-beta (UniProt P01137)
Chain of UniProt P01137 (P01137 279-390 limits assumed): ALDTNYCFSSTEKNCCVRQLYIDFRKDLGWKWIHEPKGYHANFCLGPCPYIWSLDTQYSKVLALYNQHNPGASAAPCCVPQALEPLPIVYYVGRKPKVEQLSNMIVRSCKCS

Chain of UniProt P13500 (P13500 24-99 limits assumed): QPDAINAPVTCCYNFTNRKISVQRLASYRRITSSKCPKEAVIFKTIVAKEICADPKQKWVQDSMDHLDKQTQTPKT
Chain of UniProt P07996 (P07996 19-1170 limits assumed): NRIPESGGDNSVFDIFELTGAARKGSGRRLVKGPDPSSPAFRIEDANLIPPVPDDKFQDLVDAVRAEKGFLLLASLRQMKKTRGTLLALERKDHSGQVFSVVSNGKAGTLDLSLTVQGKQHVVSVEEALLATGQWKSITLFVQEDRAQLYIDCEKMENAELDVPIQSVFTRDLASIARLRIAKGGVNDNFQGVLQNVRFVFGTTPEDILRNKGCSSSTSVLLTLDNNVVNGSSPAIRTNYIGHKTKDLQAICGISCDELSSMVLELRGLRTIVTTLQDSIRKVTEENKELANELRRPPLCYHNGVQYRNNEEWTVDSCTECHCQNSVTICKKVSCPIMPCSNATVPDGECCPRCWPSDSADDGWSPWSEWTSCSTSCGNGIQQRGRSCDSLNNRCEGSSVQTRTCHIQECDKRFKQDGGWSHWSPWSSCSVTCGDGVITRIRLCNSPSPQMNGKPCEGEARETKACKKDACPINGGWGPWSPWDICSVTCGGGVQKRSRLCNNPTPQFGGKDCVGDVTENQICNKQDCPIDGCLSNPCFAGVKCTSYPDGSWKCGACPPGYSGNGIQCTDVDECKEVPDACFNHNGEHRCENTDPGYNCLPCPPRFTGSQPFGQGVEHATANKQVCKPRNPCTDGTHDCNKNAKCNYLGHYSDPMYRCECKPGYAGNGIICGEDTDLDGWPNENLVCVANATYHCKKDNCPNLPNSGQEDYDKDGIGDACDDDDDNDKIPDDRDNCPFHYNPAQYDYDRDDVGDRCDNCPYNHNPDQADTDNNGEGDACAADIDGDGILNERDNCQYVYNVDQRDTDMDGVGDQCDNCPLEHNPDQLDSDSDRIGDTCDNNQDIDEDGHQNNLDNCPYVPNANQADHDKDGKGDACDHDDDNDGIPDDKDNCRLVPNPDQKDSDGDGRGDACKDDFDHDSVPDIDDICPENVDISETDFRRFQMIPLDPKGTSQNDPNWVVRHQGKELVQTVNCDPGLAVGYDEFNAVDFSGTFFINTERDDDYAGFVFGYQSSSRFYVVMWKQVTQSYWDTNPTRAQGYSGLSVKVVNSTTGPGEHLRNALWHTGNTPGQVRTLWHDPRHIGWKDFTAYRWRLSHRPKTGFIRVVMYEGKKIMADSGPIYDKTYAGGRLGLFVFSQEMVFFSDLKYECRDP
Chain of UniProt P22301 (P22301 19-178 limits assumed): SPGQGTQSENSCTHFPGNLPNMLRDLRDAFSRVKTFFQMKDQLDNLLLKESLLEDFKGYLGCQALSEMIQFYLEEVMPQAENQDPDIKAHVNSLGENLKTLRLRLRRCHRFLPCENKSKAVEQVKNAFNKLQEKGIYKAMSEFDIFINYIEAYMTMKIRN
Chain of UniProt Q12841 (Q12841 21-308 limits assumed): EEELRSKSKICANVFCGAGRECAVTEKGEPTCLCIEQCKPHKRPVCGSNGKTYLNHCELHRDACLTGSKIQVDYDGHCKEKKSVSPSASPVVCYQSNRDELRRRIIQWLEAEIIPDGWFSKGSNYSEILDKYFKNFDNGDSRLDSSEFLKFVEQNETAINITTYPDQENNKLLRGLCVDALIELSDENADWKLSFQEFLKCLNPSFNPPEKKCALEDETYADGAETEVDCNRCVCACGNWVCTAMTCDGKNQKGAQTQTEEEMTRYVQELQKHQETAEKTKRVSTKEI
Chain of UniProt Q14627 (Q14627 27-380 limits assumed): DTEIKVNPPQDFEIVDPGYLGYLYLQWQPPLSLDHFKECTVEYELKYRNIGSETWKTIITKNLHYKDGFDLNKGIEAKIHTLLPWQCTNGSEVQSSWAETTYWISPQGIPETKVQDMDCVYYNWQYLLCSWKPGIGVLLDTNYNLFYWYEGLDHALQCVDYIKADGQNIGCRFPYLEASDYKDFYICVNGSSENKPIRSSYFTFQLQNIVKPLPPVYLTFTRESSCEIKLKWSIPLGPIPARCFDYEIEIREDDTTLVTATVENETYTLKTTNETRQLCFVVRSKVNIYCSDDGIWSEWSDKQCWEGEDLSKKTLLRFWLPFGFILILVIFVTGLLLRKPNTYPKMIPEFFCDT

## anti-TSP1 antibody (ABCAM #ab3131)
[1]
  FoxP3 protein expression in CD8+ cells, F3 cells (FIG. 13): 5.28
  expression level of FoxP3 protein in CD4+ cells, F3 clone with antibody (FIG. 6; 35.34 without): 9.26
  expression level of FoxP3 protein in CD4+ cells, F3 clone with antibody (FIG. 7; 38.39 without): 21.4
  expression level of FoxP3 protein in CD4+CD25+ cells, F3 clone with antibody: 27.8
  expression level of FoxP3 protein in CD4+CD25- cells, F3 clone with antibody: 16.6

## anti-FSTL1 antibody (R&D #MAB1694)
[2]
  decrease in cellular infiltration capability of F3 cells (matrigel Transwell, antibody at 1 ug/ml): 45%
  expression level of FoxP3 protein in CD4+ cells, F3 clone with antibody (FIG. 6; 35.34 without): 14.9
  expression level of FoxP3 protein in CD4+ cells, F3 clone with antibody (FIG. 7; 38.39 without): 34.7
  expression level of FoxP3 protein in CD4+CD25+ cells, F3 clone with antibody: 29.9
  expression level of FoxP3 protein in CD4+CD25- cells, F3 clone with antibody: 32.6

## anti-MCP1 antibody (BD PharMingen #551226)
[3]
  FoxP3 protein expression in CD8+ cells, F3 cells (FIG. 13): 12
  decrease in cellular infiltration capability of F3 cells (matrigel Transwell, antibody at 1 ug/ml): 45%
  expression level of FoxP3 protein in CD4+ cells, F3 clone with antibody (FIG. 6; 35.34 without): 16.3
  expression level of FoxP3 protein in CD4+ cells, F3 clone with antibody (FIG. 7; 38.39 without): 22.9
  expression level of FoxP3 protein in CD4+CD25+ cells, F3 clone with antibody: 22.1
  expression level of FoxP3 protein in CD4+CD25- cells, F3 clone with antibody: 19
  expression of FoxP3 protein enhanced by the culture supernatant of B11 clone (FIG. 8): 4.69

## anti-IL-13Ra2 antibody (R&D #AF146)
[4]
  FoxP3 protein expression in CD8+ cells, B11 cells (FIG. 14): 10.2
  expression level of FoxP3 protein in CD4+ cells, F3 clone with antibody (FIG. 6): 11.9
  expression of FoxP3 protein enhanced by the culture supernatant of B11 clone (FIG. 8; 23.69 without antibody): 7.6

## anti-IL-10 antibody (R&D #MAB2171)
[5]
  expression level of FoxP3 protein in CD4+ cells, F3 clone with antibody (FIG. 6): 11.4
  expression level of FoxP3 protein in CD4+ cells, F3 clone with antibody (FIG. 7): 30.9
  expression level of FoxP3 protein in CD4+CD25+ cells, F3 clone with antibody: 29.9
  expression level of FoxP3 protein in CD4+CD25- cells, F3 clone with antibody: 28.1

## anti-TGF-beta1 antibody (R&D #MAB246)
[6]
  expression level of FoxP3 protein in CD4+ cells, F3 clone with antibody (FIG. 6): 23.4
  expression level of FoxP3 protein in CD4+ cells, F3 clone with antibody (FIG. 7): 30.6
  expression level of FoxP3 protein in CD4+CD25+ cells, F3 clone with antibody: 28.9
  expression level of FoxP3 protein in CD4+CD25- cells, F3 clone with antibody: 28.4

Reference: patent publication US20100291677A1
